Laboratory results reported in paper PMC2275104 (Nucleic Acids Research, 2008).
Where a chain is given by its changes, count along the chain named. Names and notes keep the numbering of the source.

B1: Methanothermobacter thermautotrophicus MCM protein, wild-type (enzyme, UniProt O27798 1-666, looked up)
chain: MMKTVDKSKTLTKFEEFFSLQDYKDRVFEAIEKYPNVRSIEVDYLDLEMFDPDLADLLIEKPDDVIRAAQQAIRNIDRLRKNVDLNIRFSGISNVIPLRELRSKFIGKFVAVDGIVRKTDEIRPRIVKAVFECRGCMRHHAVTQSTNMITEPSLCSECGGRSFRLLQDESEFLDTQTLKLQEPLENLSGGEQPRQITVVLEDDLVDTLTPGDIVRVTGTLRTVRDERTKRFKNFIYGNYTEFLEQEFEELQISEEDEEKIKELAGDPNIYEKIIRSTAPSIHGYREVKEAIALQLFGGTGKELDDKTRLRGDIHILIVGDPGIGKSQMLKYVSKLAPRGIYTSGKGTSGVGLTAAAVRDEFGGWSLEAGALVLGDKGNVCVDELDKMREEDRSAIHEALEQQTISIAKAGIMATLNSRCSVLAAANPKFGRFDSYKSIAEQIDLPSTILSRFDLIFVVEDKPDEEKDRELARHILKTHKEDHMPFEIDPELLRKYIAYARKNVRPVLTDEAMQVLEDFYVSMRASAADEDSPVPITARQLEALVRLSEASAKIKLKEHVEAEDARKAIKLSQACLKQVGYDPETGKIDIDKVEGRTPKSERDKFRLLLELIKEYEDDYGGRAPTNILITEMMDRYNVSEEKVEELIRILKDKGAIFEPARGYLKIV
B2: Methanothermobacter thermautotrophicus MCM protein, G190A mutant (enzyme, UniProt O27798 1-666, looked up)
chain: B1 chain with G190A
B3: Methanothermobacter thermautotrophicus MCM protein, E182R mutant (enzyme, UniProt O27798 1-666, looked up)
chain: B1 chain with E182R
B4: Methanothermobacter thermautotrophicus MCM protein, Q181A mutant (enzyme, UniProt O27798 1-666, looked up)
chain: B1 chain with Q181A
B5: Methanothermobacter thermautotrophicus MCM protein, P193G mutant (enzyme, UniProt O27798 1-666, looked up)
chain: B1 chain with P193G
B6: Methanothermobacter thermautotrophicus MCM protein, E185R mutant (enzyme, UniProt O27798 1-666, looked up)
chain: B1 chain with E185R
B7: Methanothermobacter thermautotrophicus MCM protein, L184A mutant (enzyme, UniProt O27798 1-666, looked up)
chain: B1 chain with L184A

Legend:
[1] = target: M. thermautotrophicus MCM (MTH1770) (Methanothermobacter thermautotrophicus, UniProt O27798); settings: labelled compound; Hepes-NaOH pH 7.5, 5 mM MgCl2, 60°C
SEC = target: the molecule itself; experiment: SEC
MCM beta-finger mutant = target: T1, MCM beta-finger mutant (Methanothermobacter thermautotrophicus, UniProt O27798 1-666, R227A;K229A); experiment: fluorescence anisotropy
T1 sequence: B1 chain with R227A, K229A

MCM P193G = target: T2, MCM P193G (Methanothermobacter thermautotrophicus, UniProt O27798 1-666, P193G); experiment: fluorescence anisotropy
T2 sequence: B1 chain with P193G

MCM E182R = target: T3, MCM E182R (Methanothermobacter thermautotrophicus, UniProt O27798 1-666, E182R); experiment: fluorescence anisotropy
T3 sequence: B1 chain with E182R

Row | Molecule | stoichiometry N (SEC) | other results
1 | Nc1ncnc2c1ncn2[C@@H]1O[C@H](COP(=O)(O)OP(=O)(O)OP(=O)(O)O)[C@@H](O)[C@H]1O [ATP] |  | % ATP cross-linked relative to wild type [1]: UV crosslinking of ATP to the various MCM proteins was performed
2 | B1 | 12 | 
3 | B2 | 12 | 
4 | B3 | 12 | 
5 | B4 | 12 | 
6 | B5 | 12 | 
7 | B6 | 12 | 
8 | B7 | 12 | 
9 | CGCAGATAACAGTTGTCCTGGAGAACGACCTGGTTGACACCCTCACACCC (ssDNA) [50-mer Cy3-ssDNA] |  | binding result (MCM beta-finger mutant): no binding; binding result (MCM P193G): binds; binding result (MCM E182R): binds
